Laboratory results published in patent US20250188151A1, “C-JUN ANTAGONIST PEPTIDES” (The University of Bath, priority 2022, published 2025).
Bridge positions count the residues as written; N and C are the ends. Peptide text beside a SMILES is read from it.

Tests used:
[1] = Serum stability (LC-MS); format: in vitro ADME; details: human serum
Protocol: Serum Stability: Peptide stocks (600 μM) were prepared in water and 50 μL added to 950 μL human serum (Merck) before incubation at 37° C. […] The supernatant was analysed by LC-MS and quantified using the sum of the two largest charge state intensities (1: 9+, 10+; 23,24: 3+, 4+).

[2] = target: cJun (Homo sapiens, UniProt P05412, S292Y); assay: Isothermal titration calorimetry, Example 2 (PEAQ-ITC); format: binding; parameters: The same 60 amino acid c-Jun bZIP construct was used for all experiments; His-SUMO (N, cleaved yes); made in house; host or cells: E. coli; details: ITC
[3] = target: cJun bZIP (Homo sapiens, UniProt P05412, S292Y); assay: CD spectra and thermal denaturation of peptide/cJun heterodimers
[4] = CD spectra and thermal denaturation of peptide-only samples (helicity, homodimer Tm)
Protocol: Circular Dichroism (CD): An Applied Photophysics Chirascan was used for CD measurements, with a 200 μL sample in a 1 mm path length CD cell. Protein/DNA samples were suspended in 150 mM potassium phosphate, 150 mM potassium fluoride and 5 mM TCEP at pH 7.4 and were equilibrated for 30 minutes before measurement. […] These scans were averaged and converted to molar residue ellipticities (MRE). Thermal denaturation experiments were performed by measuring the ellipticity at 222 nm over a 1 to 90° C. gradient at 1° C. increments. Post-melt scans at 20° C. confirmed the transitions were reversible as they overlaid within 10% of the pre-melt scan.
Circular Dichroism (CD): An Applied Photophysics Chirascan was used for CD measurements, with a 200 μL sample in a 1 mm path length CD cell. Protein/DNA samples were suspended in 150 mM potassium phosphate, 150 mM potassium fluoride and 5 mM TCEP at pH 7.4 and were equilibrated for 30minutes before measurement. […] Thermal denaturation experiments were performed by measuring the ellipticity at 222 nm over a 1 to 90° C. gradient at 1° C. increments. Post-melt scans at 20° C. confirmed the transitions were reversible as they overlaid within 10% of the pre-melt scan.
Peptide helicity was determined by quantifying the CD signal at 222 nm of peptide only samples. Thermal denaturation experiments were then used to determine the Tm of peptide-c-Jun heterodimers, which was used as an approximate measure of target engagement. […] The same 60 amino acid c-Jun bZIP construct was used for all experiments, regardless of antagonist peptide length.

[5] = target: T1, cJun/TRE DNA interaction (Homo sapiens, UniProt P05412, S292Y); assay: CD cJun/TRE DNA antagonism (shift of TRE DNA peak at ~281 nm, Hill fit); format: biochemical; details: P=0.02
T1 construct: The same 60 amino acid c-Jun bZIP construct was used for all experiments; His-SUMO (N, cleaved yes); made in house; host or cells: E. coli

[6] = target: T2, cJun bZIP (human, UniProt P05412 252-308, limits assumed); assay: cell-based or functional assay
T2 chain: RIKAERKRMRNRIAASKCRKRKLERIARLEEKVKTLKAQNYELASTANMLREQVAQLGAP

[7] = target: T2, cJun bZIP; assay: ITC (PEAQ-ITC), peptide injected into cJun, one site model
[8] = target: T2, cJun bZIP; assay: CD thermal denaturation
[9] = target: T2, cJun bZIP; assay: CD thermal denaturation, peptide 5 µM and c-Jun 5 µM
[10] = target: T2, cJun bZIP; assay: cell-based or functional assay

Molecule: CC[C@H](C)[C@H](NC(=O)[C@H](CCC(=O)O)NC(=O)[C@H](CCCCN)NC(=O)[C@H](CCCNC(=N)N)NC(=O)[C@H](CC(C)C)NC(=O)[C@H](C)NC(=O)[C@H](Cc1ccc(O)cc1)NC(=O)[C@H](CC(N)=O)NC(=O)[C@H](CCCNC(=N)N)NC(=O)[C@H](CCC(=O)O)NC(=O)[C@H](CCC(=O)O)NC(=O)[C@H](CC(C)C)NC(=O)[C@H](CCC(N)=O)NC(=O)[C@H](CCC(=O)O)NC(=O)[C@@H](NC(=O)[C@H](CCC(=O)O)NC(=O)[C@@H]1CC(=O)NCCCC[C@H](NC(=O)[C@H](CCC(=O)O)NC(=O)[C@H](CCC(=O)O)NC(=O)[C@@H](NC(=O)[C@@H](NC(=O)[C@H](CC(C)C)NC(=O)[C@H](CCC(=O)O)NC(=O)[C@H](CCC(=O)O)NC(=O)[C@H](C)NC(=O)[C@H](CCC(=O)O)NC(C)=O)C(C)C)C(C)C)C(=O)N[C@@H](C(C)C)C(=O)N[C@@H](CC(C)C)C(=O)N[C@@H](CCC(=O)O)C(=O)N1)[C@@H](C)CC)C(=O)N[C@H]1CCCCNC(=O)C[C@@H](C(=O)N[C@@H](CCC(N)=O)C(N)=O)NC(=O)[C@H](CCC(N)=O)NC(=O)[C@H](CC(C)C)NC(=O)[C@H](CC(=O)O)NC1=O [Peptide 24] (Ac-EAEELVVEEKVLEDEIEQLEERNYALRKEIKDLQDQ-NH2; lactam 10-14, 31-35 (inferred))
- remaining at 96 h, 30 μM ([1]; 37° C., after 96 hours, read-out: peak intensities relative to starting values): 35%
- metabolised at 24 h, 30 μM ([1]; 37° C., at 24 hours, read-out: degraded): 7%
- serum stability ([1]; LC-MS): highest stability
- ΔG [2]: -10.95 ± 0.241 kcal/mol
- ΔH [2]: -30.55 ± 0.624 kcal/mol
- −TΔS [2]: 19.6 ± 0.669 kcal/mol
- Stoichiometry, n ([2]; c-Jun-peptide interaction): 1.05 ± 0.01
- change in heterodimer Tm compared to the best single lactamised peptide [3]: no significant change in heterodimer Tm
- Tm (° C.) ([3]; peptide (5 μM)/c-Jun (5 μM) heterodimer, Table 6): 63.2 ± 1.3 °C
- increase in peptide helicity from 1 [4]: 20%
- more helical compared to the best single lactamised peptide [4]: ~4%
- change in IC50 compared to the best single lactamised peptide [5]: significant decrease in IC50 value

B1: HingeW peptide variant 23 (peptide)
peptide: Ac-EAEELVVEEDVLEEEIEQLEERNYALRKEIKDLQDQ-NH2
modifications: lactam 31-35
SMILES: CC[C@H](C)[C@H](NC(=O)[C@H](CCC(=O)O)NC(=O)[C@H](CCCCN)NC(=O)[C@H](CCCNC(=N)N)NC(=O)[C@H](CC(C)C)NC(=O)[C@H](C)NC(=O)[C@H](Cc1ccc(O)cc1)NC(=O)[C@H](CC(N)=O)NC(=O)[C@H](CCCNC(=N)N)NC(=O)[C@H](CCC(=O)O)NC(=O)[C@H](CCC(=O)O)NC(=O)[C@H](CC(C)C)NC(=O)[C@H](CCC(N)=O)NC(=O)[C@H](CCC(=O)O)NC(=O)[C@@H](NC(=O)[C@H](CCC(=O)O)NC(=O)[C@H](CCC(=O)O)NC(=O)[C@H](CCC(=O)O)NC(=O)[C@H](CC(C)C)NC(=O)[C@@H](NC(=O)[C@H](CC(=O)O)NC(=O)[C@H](CCC(=O)O)NC(=O)[C@H](CCC(=O)O)NC(=O)[C@@H](NC(=O)[C@@H](NC(=O)[C@H](CC(C)C)NC(=O)[C@H](CCC(=O)O)NC(=O)[C@H](CCC(=O)O)NC(=O)[C@H](C)NC(=O)[C@H](CCC(=O)O)NC(C)=O)C(C)C)C(C)C)C(C)C)[C@@H](C)CC)C(=O)N[C@H]1CCCCNC(=O)C[C@@H](C(=O)N[C@@H](CCC(N)=O)C(N)=O)NC(=O)[C@H](CCC(N)=O)NC(=O)[C@H](CC(C)C)NC(=O)[C@H](CC(=O)O)NC1=O
notes: Synthetic, NΔ20 CΔ7; Best single lactamised peptide; also called cyclised form of 22/23
- IC50 CD [6]: 52.7 µM
- -TΔS [7]: 14 kcal/mol
- Kd [7]: 0.0866 µM
- Stoichiometry, n [7]: 0.97
- ΔG [7]: -9.66 kcal/mol
- ΔH [7]: -23.6 kcal/mol
- heterodimer ΔTm against parent sequence 11 [8]: ~8 ° C.
- heterodimer ΔTm from lactamisation (23 against linear 22) [8]: ~9 ° C.
- Tm (° C.) of peptide-c-Jun heterodimer [9]: 65 ° C.
- fold lower IC50 than 11 [10]: 1.6 fold

B2: HingeW variant peptide 15 (peptide)
peptide: Ac-EAKELVDEEDVLEEEIEQLEERNYALRKEIEDLQKQ-NH2
modifications: lactam 3-7
notes: Synthetic, NΔ20 CΔ7; also called cyclised form of 14/15
- IC50 CD [6]: 81.1 µM
- heterodimer ΔTm from lactamisation (15 against linear 14) [8]: ~2 ° C.
- Tm (° C.) of peptide-c-Jun heterodimer [9]: 59.4 ° C.

B3: HingeW variant peptide 17 (peptide)
peptide: Ac-EAEELVVEEKVLEDEIEQLEERNYALRKEIEDLQKQ-NH2
modifications: lactam 10-14
SMILES: CC[C@H](C)[C@H](NC(=O)[C@H](CCC(=O)O)NC(=O)[C@H](CCCCN)NC(=O)[C@H](CCCNC(=N)N)NC(=O)[C@H](CC(C)C)NC(=O)[C@H](C)NC(=O)[C@H](Cc1ccc(O)cc1)NC(=O)[C@H](CC(N)=O)NC(=O)[C@H](CCCNC(=N)N)NC(=O)[C@H](CCC(=O)O)NC(=O)[C@H](CCC(=O)O)NC(=O)[C@H](CC(C)C)NC(=O)[C@H](CCC(N)=O)NC(=O)[C@H](CCC(=O)O)NC(=O)[C@@H](NC(=O)[C@H](CCC(=O)O)NC(=O)[C@@H]1CC(=O)NCCCC[C@H](NC(=O)[C@H](CCC(=O)O)NC(=O)[C@H](CCC(=O)O)NC(=O)[C@@H](NC(=O)[C@@H](NC(=O)[C@H](CC(C)C)NC(=O)[C@H](CCC(=O)O)NC(=O)[C@H](CCC(=O)O)NC(=O)[C@H](C)NC(=O)[C@H](CCC(=O)O)NC(C)=O)C(C)C)C(C)C)C(=O)N[C@@H](C(C)C)C(=O)N[C@@H](CC(C)C)C(=O)N[C@@H](CCC(=O)O)C(=O)N1)[C@@H](C)CC)C(=O)N[C@@H](CCC(=O)O)C(=O)N[C@@H](CC(=O)O)C(=O)N[C@@H](CC(C)C)C(=O)N[C@@H](CCC(N)=O)C(=O)N[C@@H](CCCCN)C(=O)N[C@@H](CCC(N)=O)C(N)=O
notes: Synthetic, NΔ20 CΔ7; also called cyclised form of 16/17
- IC50 CD [6]: 74.9 µM
- -TΔS [7]: 4.34 kcal/mol
- Kd [7]: 0.0696 µM
- Stoichiometry, n [7]: 1.2
- ΔG [7]: -9.77 kcal/mol
- ΔH [7]: -14.1 kcal/mol
- increase in cJun heterodimer Tm from its linear form 16 [8]: ~9 ° C.
- Tm (° C.) of peptide-c-Jun heterodimer [9]: 64 ° C.

B4: HingeW variant peptide 13 (peptide)
peptide: Ac-KEAEDLVVEEDVLEEEIEQLEERNYALRKEIKDLQDQ-NH2
modifications: lactam (positions not given here); also: one i to i+4 K-D lactam bridge, pair not given here
notes: Synthetic, NΔ19 CΔ7; also called cyclised form of 12/13
- IC50 CD [6]: 92.5 µM
- heterodimer ΔTm against parent sequence 11 [8]: ~1 ° C.
- Tm (° C.) of peptide-c-Jun heterodimer [9]: 58.5 ° C.
